Results reported in article doi:10.1101/2022.03.17.482250 (bioRxiv, 2022).

B1: Dynein light intermediate chain (natural protein)
chain: MAPVGVEKKLLLGPNGPAVAAAGDLTSEEEEGQSLWSSILSEVSTRARSKLPSGKNILVFGEDGSGKTTLMTKLQGAEHGKKGRGLEYLYLSVHDEDRDDHTRCNVWILDGDLYHKGLLKFAVSAESLPETLVIFVADMSRPWTVMESLQKWASVLREHIDKMKIPPEKMRELERKFVKDFQDYMEPEEGCQGSPQRRGPLTSGSDEENVALPLGDNVLTHNLGIPVLVVCTKCDAVSVLEKEHDYRDEHLDFIQSHLRRFCLQYGAALIYTSVKEEKNLDLLYKYIVHKTYGFHFTTPALVVEKDAVFIPAGWDNEKKIAILHENFTTVKPEDAYEDFIVKPPVRKLVHDKELAAEDEQVFLMKQQSLLAKQPATPTRASESPARGPSGSPRTQGRGGPASVPSSSPGTSVKKPDPNIKNNAASEGVLASFFNSLLSKKTGSPGSPGAGGVQSTAKKSGQKTVLSNVQEELDRMTRKPDSMVTNSSTENEA
B2: Full-length mouse BICDR1 (natural protein)
chain: MSAFCLGLAGRASAPAEPDSACCMELPAGAGDAVRSPATAAALVSFPGGPGELELALEEELALLAAGERSSEPGEHPQAEPESPVEGHGPPLPPPPTQDPELLSVIRQKEKDLVLAARLGKALLERNQDMSRQYEQMHKELTDKLEHLEQEKHELRRRFENREGEWEGRVSELETDVKQLQDELERQQLHLREADREKTRAVQELSEQNQRLLDQLSRASEVERQLSMQVHALKEDFREKNSSTNQHIIRLESLQAEIKMLSDRKRELEHRLSATLEENDLLQGTVEELQDRVLILERQGHDKDLQLHQSQLELQEVRLSYRQLQGKVEELTEERSLQSSAATSTSLLSEIEQSMEAEELEQEREQLRLQLWEAYCQVRYLCSHLRGNDSADSAVSTDSSMDESSETSSAKDVPAGSLRTALNDLKRLIQSIVDGVEPTVTLLSVEMTALKEERDRLRVTSEDKEPKEQLQKAIRDRDEAIAKKNAVELELAKCKMDMMSLNSQLLDAIQQKLNLSQQLEAWQDDMHRVIDRQLMDTHLKEQSRPAAAAFPRGHGVGRGQEPSTADGKRLFSFFRKI

Assays:
Assay in all cases: cryo-EM structure
[1] = target: Dynactin (pig (endogenous in pig brain)) (UniProt F2Z5G5)
Full-length mouse BICDR1 = target: B2
cryo-EM structure = target: the molecule itself

## Human cytoplasmic dynein-1 (from UniProt Q14204;Q13409;O43237;Q9NP97) (complex)
[1]
  stoichiometry N (dynein dimers in the complex): 2

## B1
Full-length mouse BICDR1
  binding result: binds

## B2
cryo-EM structure
  binding result: binds
[1]
  stoichiometry N (adaptors per dynein-dynactin complex): 2
